These results are taken from paper PMC8544800 (Biochemistry, 2020).

B1: PCGF1 RAWUL (150–259)/BCOR PUFD dimer (complex, human)
chain 1: LPFSSFDHSKAHYYRYDEQLNLCLERLSSGKDKNKSVLQNKYVRCSVRAEVRHLRRVLCHRLMLNPQHVQLLFDNEVLPDHMTMKQIWLSRWFGKPSPLLLQYSVKEKRR
chain 2: SDVFEFEFSETPLLPCYNIQVSVAQGPRNWLLLSDVLKKLKMSSRIFRCNFPNVEIVTIAEAEFYRQVSASLLFSCSKDLEAFNPESKELLDLVEFTNEIQTLLGSSVEWLHPSD
B2: PCGF1 RAWUL (150–259)/BCORL1 PUFD dimer (complex, human)
chain 1: LPFSSFDHSKAHYYRYDEQLNLCLERLSSGKDKNKSVLQNKYVRCSVRAEVRHLRRVLCHRLMLNPQHVQLLFDNEVLPDHMTMKQIWLSRWFGKPSPLLLQYSVKEKRR
chain 2: DDFMFELSDKPLLPCYNLQVSVSRGPCNWFLFSDVLKRLKLSSRIFQARFPHFEITTMPKAEFYRQVASSQLLTPAERPGGLDDRSPPGSSETVELVRYEPDLLRLLGSEVEFQSCNS
B3: PCGF1 RAWUL (150–259)/BCOR 1593–1748 dimer (complex, human)
chain 1: LPFSSFDHSKAHYYRYDEQLNLCLERLSSGKDKNKSVLQNKYVRCSVRAEVRHLRRVLCHRLMLNPQHVQLLFDNEVLPDHMTMKQIWLSRWFGKPSPLLLQYSVKEKRR
chain 2: DASGTWDFYGSSVCEPDDESGYDVLANPPGPEDQDDDDDAYSDVFEFEFSETPLLPCYNIQVSVAQGPRNWLLLSDVLKKLKMSSRIFRCNFPNVEIVTIAEAEFYRQVSASLLFSCSKDLEAFNPESKELLDLVEFTNEIQTLLGSSVEWLHPSD
B4: PCGF1 RAWUL (150–259)/BCOR 1448–1748 dimer (complex, human)
chain 1: LPFSSFDHSKAHYYRYDEQLNLCLERLSSGKDKNKSVLQNKYVRCSVRAEVRHLRRVLCHRLMLNPQHVQLLFDNEVLPDHMTMKQIWLSRWFGKPSPLLLQYSVKEKRR
chain 2: PMPPEARRLIVNKNAGETLLQRAARLGYEEVVLYCLENKICDVNHRDNAGYCALHEACARGWLNIVRHLLEYGADVNCSAQDGTRPLHDAVENDHLEIVRLLLSYGADPTLATYSGRTIMKMTHSELMEKFLTDYLNDLQGRNDDDASGTWDFYGSSVCEPDDESGYDVLANPPGPEDQDDDDDAYSDVFEFEFSETPLLPCYNIQVSVAQGPRNWLLLSDVLKKLKMSSRIFRCNFPNVEIVTIAEAEFYRQVSASLLFSCSKDLEAFNPESKELLDLVEFTNEIQTLLGSSVEWLHPSD
B5: PCGF1 RAWUL (150–259)/BCOR PUFD Leu1705Gln dimer (complex, human)
chain 1: LPFSSFDHSKAHYYRYDEQLNLCLERLSSGKDKNKSVLQNKYVRCSVRAEVRHLRRVLCHRLMLNPQHVQLLFDNEVLPDHMTMKQIWLSRWFGKPSPLLLQYSVKEKRR
chain 2: SDVFEFEFSETPLLPCYNIQVSVAQGPRNWLLLSDVLKKLKMSSRIFRCNFPNVEIVTIAEAEFYRQVSASQLFSCSKDLEAFNPESKELLDLVEFTNEIQTLLGSSVEWLHPSD

This assay deals with hexahistidine (6His)-tagged KDM2B/SKP1 dimer (human, UniProt Q8NHM5 1059-1336; P63208 1-163). In words: BLI. On the technique in general: In BLI a coated tip is dipped into the sample, and binding shifts an interference pattern.
Chain of hexahistidine (6His)-tagged KDM2B/SKP1 dimer (Q8NHM5 1059-1336, chain 1 of 2): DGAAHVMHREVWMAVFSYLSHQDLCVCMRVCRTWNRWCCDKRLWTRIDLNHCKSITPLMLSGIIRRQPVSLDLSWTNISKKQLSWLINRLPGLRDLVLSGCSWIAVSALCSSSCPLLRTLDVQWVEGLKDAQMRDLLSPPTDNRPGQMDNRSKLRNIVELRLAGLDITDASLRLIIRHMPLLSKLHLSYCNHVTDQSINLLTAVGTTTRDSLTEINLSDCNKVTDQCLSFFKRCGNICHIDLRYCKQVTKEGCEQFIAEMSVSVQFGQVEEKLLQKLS
Chain of hexahistidine (6His)-tagged KDM2B/SKP1 dimer (P63208 whole entry, chain 2 of 2): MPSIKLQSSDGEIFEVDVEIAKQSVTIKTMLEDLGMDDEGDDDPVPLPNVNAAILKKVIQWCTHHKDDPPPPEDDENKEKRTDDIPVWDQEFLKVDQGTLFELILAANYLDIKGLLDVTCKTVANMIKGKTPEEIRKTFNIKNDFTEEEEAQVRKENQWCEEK
Molecule B1 showed a Kd of 43000 nM.

B2 had a dissociation constant (Kd) of around 240 nM.

The molecule B3 registered a Kd of 106 nM.

B4 showed a Kd of around 31 nM.

The molecule B5 yielded a Kd of 32 nM.

As a reminder, the Kd is the concentration at which binding is half-saturated. Higher therefore signals lower affinity.
